Assay results: US6800470B2, “Mammalian sphingosine kinase type 2 isoforms, cloning, expression and methods of use thereof” (Sankyo Company, Ltd., priority 2000, dated 2004)

T1: mSPHK2 (Mus musculus, UniProt Q9JIA7)
T1 construct: The open reading frames of mSPHK2 and hSPHK2 encode polypeptides of 617 and 618 amino acids, respectively; made in house; host or cells: HEK293 (ATCC CRL-1573), transient transfection; unpurified cytosol or whole lysate
T1 sequence (Q9JIA7 1-617): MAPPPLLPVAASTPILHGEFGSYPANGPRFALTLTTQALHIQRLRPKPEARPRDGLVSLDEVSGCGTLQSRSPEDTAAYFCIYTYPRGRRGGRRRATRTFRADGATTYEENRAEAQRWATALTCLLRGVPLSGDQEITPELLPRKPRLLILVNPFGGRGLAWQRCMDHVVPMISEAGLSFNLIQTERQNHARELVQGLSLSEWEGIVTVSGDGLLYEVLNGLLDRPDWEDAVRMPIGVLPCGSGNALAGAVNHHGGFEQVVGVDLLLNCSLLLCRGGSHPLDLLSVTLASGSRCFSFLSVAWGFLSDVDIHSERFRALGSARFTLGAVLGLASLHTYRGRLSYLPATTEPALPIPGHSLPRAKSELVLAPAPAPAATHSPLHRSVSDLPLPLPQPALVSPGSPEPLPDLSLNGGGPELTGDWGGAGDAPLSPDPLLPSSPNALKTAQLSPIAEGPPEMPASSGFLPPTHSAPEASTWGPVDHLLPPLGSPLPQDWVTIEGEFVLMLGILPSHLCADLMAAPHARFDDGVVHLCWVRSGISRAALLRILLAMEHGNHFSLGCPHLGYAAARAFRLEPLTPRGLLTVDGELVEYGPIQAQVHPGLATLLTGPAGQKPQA


What was measured:
[1] = substrate: CCCCCCCCCCCCC/C=C/[C@@H](O)[C@@H](N)CO; experiment: SPHK activity assay with recombinant mSPHK2 (cytosol/lysates of transfected HEK293 cells, [g-32P]ATP, TLC); format: biochemical, mouse; settings: other: recombinant SPHK2
Description: HEK293 cells were seeded at 6×10^5 per well in poly-L-lysine coated 6 well plates. […] SPHK activity was determined in the presence of sphingosine, prepared as a complex with 4 mg/ml BSA, and [g-32P] […] 32P-SPP was separated by TLC and quantified with a phosphoimager as previously described.

HEK293 cells [2] = experiment: Mass levels of SPP in HEK293 cells after transfection with SPHK2; format: cell-based, human; settings: HEK 293 cells after transfection
Description: Mass levels of SPP in HEK293 cells transfected with an empty vector (open bars) or with mSPHK2 (filled bars) or with hSPHK2 (hatched bars) were measured as described hereinbelow. The data are expressed as pmol/nmol phospholipid.
Cells were washed with PBS and scraped in 1 ml of methanol containing 2.5 μl concentrated HCl. Lipids were extracted by adding 2 ml chloroform/1M NaCl (1:1, v/v) and 100 μl 3N NaOH and phases separated. The basic aqueous phase containing SPP, and devoid of sphingosine, ceramide, and the majority of phospholipids, was transferred to a siliconized glass tube. The organic phase was re-extracted with 1 ml methanol/1M NaCl (1:1, v/v) plus 50 μl 3N NaOH, and the aqueous fractions were combined. Mass measurement on SPP in the aqueous phase and total phospholipids in the organic phase were measured exactly as described in Edsall, L. C., Pirianov, G. G., and Spiegel, S., J. Neurosci., 17, (1997) 6952-6960; Edsall, L. C., and Spiegel, S., Anal. Biochem., 272, (1999) 80-86).

HEK293 cells [3] = experiment: SPHK activity in HEK293 cells transiently transfected with SPHK expression vectors (cytosol and particulate fractions); format: cell-based, human; settings: 24 hours after transfection of HEK293 cells
Description: In FIG. 3A, HEK 293 cells were transiently transfected with an empty vector or with mSPHK2 or hSPHK2 expression vectors. After 24 hours, SPHK activity was measured in cytosol (open bars) and particulate fractions (filled bars). The data are means±S.D. Parental and vector-transfected cells had basal SPHK activities of 26 and 37 pmol/min/mg, respectively.
(§1) Human embryonic kidney cells (HEK293, ATCC CRL-1573) and NIH 3T3 fibroblasts (ATCC CRL-1658) were cultured as described in Olivera, A., Kohama, T., Edsall, L. C., Nava, V., Cuvillier, O., Poulton, S., and Spiegel, S., J. Cell Biol., 147 (1999) 545-558. HEK293 cells were seeded at 6×10^5 per well in poly-L-lysine coated 6 well plates. After 24 hours, cells were transfected with 1 μg of vector alone or with vectors containing sphingosine kinase constructs and 6 μl of “Lipofectamine PLUS” reagent plus 4 μl of “Lipofectamine” reagent per well. One to three days after transfection, cells were harvested and lysed by freeze-thawing as described in Kohama, T., Olivera, A., Edsall, L., Nagiec, M. M., Dickson, R., and Spiegel, S., J. Biol. Chem., 273, (1998), 23722-23728. In some experiments, cell lysates were fractionated into cytosol and membrane fractions by centrifugation at 100,000×g for 60 minutes. SPHK activity was determined in the presence of sphingosine, prepared as a complex with 4 mg/ml BSA, and [g-32P] ATP in kinase buffer (Olivera, A. and Spiegel, S. in Methods in Molecular Biology, (Bird, I. M. ed.), (1998), Vol. 105, 233-242, Humana Press, Inc., Totowa, N.J.), containing 200 mM KCl, unless indicated otherwise. 32P-SPP was separated by TLC and quantified with a phosphoimager as previously described.

mSPHK2 = target: T1, mSPHK2; experiment: SPHK activity assay with recombinant mSPHK2 (cytosol/lysates of transfected HEK293 cells, [g-32P]ATP, TLC); format: biochemical; settings: cytosolic activity, kinase buffer of adjusted pH
Description: Lanes: 1, D-erythro-sphingosine (“D-erythro-Sph”); 2, D-erythro-dihydrosphingosine (“D-erythro-DHS”); 3, D, L-threo-DHS; 4, N,N-dimethylsphingosine (“DMS”); 5, C2-ceramide; 6, C16-ceramide; 7, diacylglycerol; 8, phosphatidylinositol; 9, phytosphingosine. Data are expressed as percentage of phosphorylation of D-erythro-Sph.
SPHK activity in HEK293 cell lysates after transfection as in FIG. 4A was measured with 10 μM D-erythro-sphingosine in the presence of increasing concentrations of DMS.
SPHK activity was measured with varying concentrations of D-erythro-sphingosine in the absence (open circles) or presence of 10 μM (filled squares) or 20 μM DMS (filled triangles).
FIG. 4D are Lineweaver-Burk plots.
In FIGS. 5B and 5C, the SPHK activity in HEK293 cell lysates was measured 24 hours after transfection with mSPHK1 (FIG. 5B) or mSPHK2 (FIG. 5C) in the absence or presence of increasing concentrations of NaCl (open squares) or KCl (filled circles).
FIG. 5E are Lineweaver-Burk plots of data from FIG. 5D.
HEK293 cells were transfected with mSPHK1a (open circles) or mSPHK2 (filled circles) and the activities of each in cell lysates were measured after 24 hours in the presence of the indicated concentrations of Triton X-100 (FIG. 6A) or BSA (FIG. 6B).
HEK293 cells were transfected with mSPHK1a (circles) or mSPHK2 (triangles) and the activities of each in cell lysates were measured after 24 hours in the presence of the indicated concentrations of phosphatidylserine (filled symbols) or phosphatidylcholine (open symbols). Data are expressed as percentage of control activity measured without any additions.
as §1

| Molecule | Km [1] | increase in SPP (HEK293 cells [2]) | increase of in vitro SPHK activity over basal levels (HEK293 cells [3]) | pH of optimal activity (mSPHK2) |
| --- | --- | --- | --- | --- |
| mSPHK2 (Mus musculus) (protein, The open reading frames of mSPHK2 and hSPHK2 encode polypeptides of 617 and 618 amino acids, respectively; made in house; host or cells: HEK293 (ATCC CRL-1573), transient transfection; unpurified cytosol or whole lysate) MAPPPLLPVAASTPILHGEFGSYPANGPRFALTLTTQALHIQRLRPKPEARPRDGLVSLDEVSGCGTLQSRSPEDTAAYFCIYTYPRGRRGGRRRATRTFRADGATTYEENRAEAQRWATALTCLLRGVPLSGDQEITPELLPRKPRLLILVNPFGGRGLAWQRCMDHVVPMISEAGLSFNLIQTERQNHARELVQGLSLSEWEGIVTVSGDGLLYEVLNGLLDRPDWEDAVRMPIGVLPCGSGNALAGAVNHHGGFEQVVGVDLLLNCSLLLCRGGSHPLDLLSVTLASGSRCFSFLSVAWGFLSDVDIHSERFRALGSARFTLGAVLGLASLHTYRGRLSYLPATTEPALPIPGHSLPRAKSELVLAPAPAPAATHSPLHRSVSDLPLPLPQPALVSPGSPEPLPDLSLNGGGPELTGDWGGAGDAPLSPDPLLPSSPNALKTAQLSPIAEGPPEMPASSGFLPPTHSAPEASTWGPVDHLLPPLGSPLPQDWVTIEGEFVLMLGILPSHLCADLMAAPHARFDDGVVHLCWVRSGISRAALLRILLAMEHGNHFSLGCPHLGYAAARAFRLEPLTPRGLLTVDGELVEYGPIQAQVHPGLATLLTGPAGQKPQA | 3.4 µM | – | – | – |
| mSPHK2: murine sphingosine kinase type 2, polypeptide of 617 amino acids (SEQ ID NO 12) (protein) MAPPPLLPVAASTPILHGEFGSYPANGPRFALTLTTQALHIQRLRPKPEARPRDGLVSLDEVSGCGTLQSRSPEDTAAYFCIYTYPRGRRGGRRRATRTFRADGATTYEENRAEAQRWATALTCLLRGVPLSGDQEITPELLPRKPRLLILVNPFGGRGLAWQRCMDHVVPMISEAGLSFNLIQTERQNHARELVQGLSLSEWEGIVTVSGDGLLYEVLNGLLDRPDWEDAVRMPIGVLPCGSGNALAGAVSHHGGFEQVVGVDLLLNCSLLLCRGGSHPLDLLSVTLASGSRCFSFLSVAWGFLSDVDIHSERFRALGSARFTLGAVLGLASLHTYRGRLSYLPATTEPALPIPGHSLPRAKSELVLAPAPAPAATHSPLHRSVSDLPLPLPQPALVSPGSPEPLPDLSLNGGGPELTGDWGGAGDAPLSPDPLLPSSPNALKTAQLSPIAEGPPEMPASSGFLPPTHSAPEASTWGPVDHLLPPLGSPLPQDWVTIEGEFVLMLGILTSHLCADLMAAPHARFDDGVVHLCWVRSGISRAALLRIFLAMEHGNHFSLGCPHLGYAAARAFRLEPLTPRGLLTVDGELVEYGPIQAQVHPGLATLLTGPAGQKPQA | – | 2.2 fold | 20 fold | 7.5 |
